Laboratory results published in the supplement of paper PMC10201428.
± gives the standard deviation of the averaged measurements.

B1: library; a variant is named by its letters at N, in order (parent)
chain: ACATTTGTTGATACAACCATAAAATGATAATTACACCCATAAATTGATAATTATCACACCCANNNNNNNNNNNNNNCTCTGATCATAGTCAGACCAACATTGCTACGACCCGTATTCGCACCGACAC

Tests used:
[1] = variants of: B1; assay: relative integration efficiency (T-RL orientation) vs wild-type transposon end (log2 (normalized fold change)); transposon end mutated: right end (5 bp flank + 75 bp right end); higher = more efficient transposition; settings: with VchCAST RNA-guided transposition machinery (E. coli BL21(DE3) host, lacZ target)
Experimental: (§1)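 Pooled, barcoded VchCAST (Tn6677) mini-transposon donor libraries; each variable transposon-end sequence sits in a fixed pDonor mini-transposon context (10-bp barcode and cargo not included). Left- or right-end libraries were co-transformed with pEffector (TniQ-Cascade, TnsABC, lacZ crRNA, T7, 0.1 mM IPTG) into E. coli BL21(DE3) and grown 18 h at 37 C. T-LR and T-RL junction amplicons were sequenced; output/input barcode fold change was normalised to the mean of four wild-type barcodes and log2-transformed. Two biological replicates; zero-count/undetected variants carry floor values (-10 / -15), censored here. Barcode uncoupling by PCR recombination adds noise.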

[2] = variants of: B1; assay: relative integration efficiency (T-LR orientation) vs wild-type transposon end (log2 (normalized fold change)); transposon end mutated: right end (5 bp flank + 75 bp right end); higher = more efficient transposition; settings: with VchCAST RNA-guided transposition machinery (E. coli BL21(DE3) host, lacZ target)
Experimental: as §1

Row | Variant | relative integration efficiency (log2) [1] | relative integration efficiency (log2) [2]
1 | TAAATTGATATTGC C37G | -0.123 ± 0.11 | -0.169 ± 0.072
2 | TAAATTGATATTGC C37A | -0.531 ± 0.059 | -1.21 ± 0.23
3 | TAAATTGATATTGC C37T | -0.229 ± 0.057 | -0.304 ± 0.57
4 | ATTTAACTATAACG C38T | -0.901 ± 0.15 | 2.05 ± 0.13
5 | ATTTAACTATAACG C38A | -1.04 ± 0.17 | 2.02 ± 0.11
6 | GCCCTTGATATTGC | -0.468 ± 0.1 | 2.5 ± 0.11
7 | ATTTAACTATAACG A43T | -0.99 ± 0.12 | 2.15 ± 0.11
8 | ATTTAACTATAACG A15T | -1.1 ± 0.15 | 1.8 ± 0.077
9 | ATTTAACTATAACG T48G | -1.18 ± 0.2 | 1.85 ± 0.083
10 | ATTTAACTATAACG C14G | -0.937 ± 0.17 | 1.76 ± 0.15
11 | TAAATTGATATTGC C55G | -0.145 ± 0.21 | 0.0542 ± 0.17
12 | TAAATTGAATTTGC | -0.179 ± 0.17 | 1.16 ± 0.42
13 | ATTTAACTATAACG T51C | -1.04 ± 0.24 | 2.48 ± 0.17
14 | ATTTAACTATAACG T52G | -1.31 ± 0.41 | 2.29 ± 0.27
15 | TAAATTGATATTGC T40A | -0.0544 ± 0.14 | -0.355 ± 0.17
16 | TAAATTGATATTGC T40C | -0.609 ± 0.017 | -0.859 ± 0.091
17 | GAAATTGATATTGC | -0.446 ± 0.11 | 2.2 ± 0.046
18 | ATTATTGATATTGC A62T | -0.325 ± 0.075 | 1.957 ± 0.011
19 | ATTTAACTATAACG A11C | -0.753 ± 0.07 | 1.51 ± 0.15
20 | ATTTAACTATAACG A11T | -0.284 ± 0.19 | 2.19 ± 0.049
21 | ATTTAACTATAACG A11G | -0.569 ± 0.088 | 1.83 ± 0.095
22 | TAAATTGATATTGC A62C | -0.726 ± 0.016 | 2.18 ± 0.2
23 | TAAATTGATATTGC A62T | -0.435 ± 0.12 | 1.36 ± 0.086
24 | TAAATTGATATTGC T52G | -0.506 ± 0.15 | -0.16 ± 0.37
25 | ATTTAACTATAACG C34A | -1.12 ± 0.27 | 2.11 ± 0.056
26 | ATTTAACTATAACG C34G | -1.76 ± 0.18 | 1.73 ± 0.16

Row | Variant | relative integration efficiency (log2) [1] | relative integration efficiency (log2) [2]
27 | TAAATTGATATTGC T25G | -0.25 ± 0.041 | -0.0581 ± 0.34
28 | TAAATTGATATTGC A56T | -0.4 ± 0.052 | 0.0769 ± 0.005
29 | ATTTAACTATAACG T45G | -1.16 ± 0.28 | 1.56 ± 0.031
30 | TAAATTGATATTGC T6G | -6.66 ± 0.074 | -5.28 ± 0.39
31 | TAAATTGATATTGC T6C | -1.81 ± 0.2 | -2.11 ± 0.46
32 | TAAATTGATATTGC C18T | 0.131 ± 0.1 | -0.605 ± 0.2
33 | TAAATTGATATTGC C18A | -0.147 ± 0.1 | -0.272 ± 0.024
34 | ATTTAACTATAACG T20A | -1.07 ± 0.11 | 2.04 ± 0.098
35 | ATTTAACTATAACG G10T | -1.54 ± 0.43 | 0.15 ± 0.026
36 | ATTTAACTATAACG G10A | -0.62 ± 0.18 | 1.89 ± 0.087
37 | ATTTAACTATAACG A56C | -1.09 ± 0.21 | 2.32 ± 0.19
38 | TATTAAGATATTGC | -0.535 ± 0.084 | 1.66 ± 0.11
39 | TAAATTGATATTGC A11G | -0.0551 ± 0.029 | -0.5 ± 0.17
40 | TAAATTGAGCTTGC | -0.264 ± 0.034 | 1.51 ± 0.32
41 | ATTTAACTATAACG T9G | -0.534 ± 0.082 | 2.39 ± 0.12
42 | ATTTAACTATAACG T9A | -0.86 ± 0.087 | 2.15 ± 0.18
43 | CAAATTGATATTGC | -0.643 ± 0.087 | 1.861 ± 0.015
44 | ATTTAACTATAACG T8C | -1.8 ± 0.42 | -0.0325 ± 0.43
45 | ATTTAACTATAACG T8A | -1.56 ± 0.29 | 0.918 ± 0.079
46 | ATTTAACTATAACG T44G | -0.646 ± 0.027 | 2.17 ± 0.033
47 | ATTTAACTATAACG T44A | -0.682 ± 0.22 | 2.32 ± 0.13
48 | TAAAGGTCTATTGC | -0.635 ± 0.042 | 2.17 ± 0.33
49 | TAAATTGATATGGC | 0.087 ± 0.065 | 0.317 ± 0.14
50 | TAAATTTCTATTGC | -0.55 ± 0.13 | 2.4 ± 0.28
51 | TAAATTGATATTGC A27T | -0.915 ± 0.17 | -0.49 ± 0.05
52 | TAAATTGATATTGC A27C | -0.753 ± 0.18 | -0.281 ± 0.16

Row | Variant | relative integration efficiency (log2) [1] | relative integration efficiency (log2) [2]
53 | TAAATTGATATTGC A27G | -0.495 ± 0.11 | -0.445 ± 0.25
54 | TAAATTGATATTGC C77G | 0.0121 ± 0.017 | -0.217 ± 0.018
55 | TAAATTGATATTGC C77T | -0.00923 ± 0.0046 | -0.351 ± 0.044
56 | TAAATTGATTTTGC | -0.0591 ± 0.014 | 0.338 ± 0.22
57 | TAAATTGATTATGC | -0.138 ± 0.008 | 0.414 ± 0.43
58 | TAAATTGCGATTGC | -0.463 ± 0.06 | 1.51 ± 0.028
59 | TAATTTGATATTGC | 0.169 ± 0.039 | 0.241 ± 0.14
60 | TAAATTGATATTGC A41G | -0.104 ± 0.45 | -0.399 ± 1.1
61 | TAAATTGATATTGC A41C | -0.815 ± 0.047 | -0.78 ± 0.23
62 | TAAATTGATATTGC G26A | -0.553 ± 0.15 | -0.268 ± 0.011
63 | TAAATTGATATTGC T51C | 0.0252 ± 0.18 | 0.0609 ± 0.14
64 | TAAATTGATATTGC T51G | -0.507 ± 0.097 | -0.118 ± 0.2
65 | TAAATTGATATTGC T31A | -0.436 ± 0.1 | 0.0674 ± 0.1
66 | TAAATTGATATTGC T31C | -0.0667 ± 0.0077 | 0.344 ± 0.35
67 | TAAATTGATATTGC T31G | -0.564 ± 0.13 | 0.2 ± 0.23
68 | TAAATTGATATTGC T32C | -0.438 ± 0.11 | -0.169 ± 0.21
69 | ATTTAACTATAACG A33G | -0.971 ± 0.32 | 2.42 ± 0.046
70 | ATTTAACTATAACG A33C | -1.12 ± 0.26 | 2.34 ± 0.17
71 | TAAATTGATATTGC A49G | -0.49 ± 0.084 | -0.155 ± 0.12
72 | TAAATTGATATTGC A49C | -0.518 ± 0.15 | -0.614 ± 0.38
73 | ATTTAACTATAACG C36A | -0.593 ± 0.052 | 2.4 ± 0.13
74 | ATTTAACTATAACG T12A | -0.998 ± 0.097 | 2.03 ± 0.032
75 | ATTTAACTATAACG T12G | -0.699 ± 0.2 | 1.76 ± 0.15
76 | TAAATTGATATTGC A35G | -0.559 ± 0.067 | -0.531 ± 0.13
77 | TAAATTGATATTGC A35T | -0.27 ± 0.02 | -0.45 ± 0.076
78 | TAAATTGATATTGC A29C | -0.793 ± 0.055 | -0.254 ± 0.12

Row | Variant | relative integration efficiency (log2) [1] | relative integration efficiency (log2) [2]
79 | TAAATTGATATTGC A29T | -0.372 ± 0.011 | 0.436 ± 0.063
80 | TAAATTGATATTGC A29G | -0.169 ± 0.087 | -0.293 ± 0.074
81 | TAAATTGATATTGC A16C | -0.0617 ± 0.0049 | 0.0173 ± 0.062
82 | TAAATTGATAGGGC | 0.0268 ± 0.029 | 1.18 ± 0.057
83 | TAGATTGATATTGC | -0.557 ± 0.12 | 1.925 ± 0.0098
84 | TAAATTGAATAAGC | -0.554 ± 0.076 | 1.55 ± 0.079
85 | TAAATTGATCTTGC | 0.011 ± 0.051 | 0.816 ± 0.13
86 | TAAATTGATATTGC C57T | -0.204 ± 0.0024 | 0.91 ± 0.032
87 | TAAATTGATATTGC C57A | -0.104 ± 0.063 | 0.461 ± 0.12
88 | TAAATTGATATTGC C57G | -0.05 ± 0.075 | 1.552 ± 0.015
89 | ATTTAACTATAACG A35C | -0.737 ± 0.15 | 2.11 ± 0.15
90 | ATTTAACTATAACG A35T | -1 ± 0.29 | 2.07 ± 0.25
91 | TTTATTGATATTGC | 0.0323 ± 0.048 | 0.91 ± 0.071
92 | TAAATTGATAAACG | -0.208 ± 0.021 | 0.342 ± 0.21
93 | ATTTAACTATAACG A41C | -1.53 ± 0.21 | 1.39 ± 0.29
94 | ATTTAACTATAACG A41T | -0.673 ± 0.15 | 2.347 ± 0.0099
95 | TAAATTGATATTGC T48G | -0.12 ± 0.078 | -0.379 ± 0.13
96 | TAAATTGATATTGC T48A | 0.196 ± 0.2 | 0.629 ± 0.21
97 | TAAATTGATATTGC C2G | 0.0801 ± 0.019 | 0.363 ± 0.28
98 | TAAATTGATATTGC C2A | 0.0243 ± 0.04 | 0.336 ± 0.22
99 | ATTTAACTATAACG T31A | -1.32 ± 0.36 | 2.39 ± 0.16
100 | ATTTAACTATAACG T31G | -1.44 ± 0.31 | 2.54 ± 0.17
101 | TAAATTGATATTGC A39C | -1.23 ± 0.021 | -1.05 ± 0.2
102 | TAAATTGATATTGC A39T | -0.236 ± 0.061 | -0.533 ± 0.43
